Assay results from patent US20140302517A1 (SAMSUNG ELECTRONICS, published 2014).
Substitutions are numbered along the chain they refer to.

B1: EW02 (antibody, human IgG1, lambda, V domains shown)
VH: EVQLLESGGGLVQPGGSLRLSCAASGFTFSNYAMSWVRQAPGKGLEWVSSISSSGGNTYYADSVKGRFTISRDNSKNTLYLQMNSLGAEDTAVYYCAKYHSVFDYWGQGTLVTVSS
VL: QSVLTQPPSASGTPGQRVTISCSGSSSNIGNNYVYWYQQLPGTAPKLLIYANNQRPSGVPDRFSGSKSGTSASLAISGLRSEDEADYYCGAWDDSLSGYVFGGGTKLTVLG
notes: also called EW02 antibody
B2: EW28 (antibody, human IgG1, lambda, V domains shown)
VH: EVQLLESGGGLVQTGGSLRLSCAVSGFTFSDYAMSWVRQAPGKGLEWVSAISSGDGNTYYADSVKGRFTISRDNSKNTLYLQMNSLRAEDTAVYYCARYLGTTSDEPASYSNGMDVWGQGTLVTVSS
VL: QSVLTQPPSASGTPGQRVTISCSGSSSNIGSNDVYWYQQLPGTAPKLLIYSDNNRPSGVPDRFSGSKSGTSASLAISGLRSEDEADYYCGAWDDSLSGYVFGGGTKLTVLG
B3: HAL 7-12 (antibody, human IgG1, lambda, V domains shown)
VH: QLQLQESGGGLVQPGGSLRLSCAASGFTFSSYAMSWVRQAPGKGLEWVSAISGSGGSTYYADSVEGRFTISRDNSKNTLYLQMNSLRAEDTAVYYCAKERLEEPGFFDYWGQGTLVTVSS
VL: QSALTQPASVSGSPGQSITISCTGTSSDVGGYNYVSWYQQHPGKAPKLMIYEVSNRPSGVSNRFSGSKSGNTASLTISGLQAEDEAHYYCSSYTTDNAWVFGGGTQLTVLG
B4: HAL 8-7 (antibody, human IgG1, kappa, V domains shown)
VH: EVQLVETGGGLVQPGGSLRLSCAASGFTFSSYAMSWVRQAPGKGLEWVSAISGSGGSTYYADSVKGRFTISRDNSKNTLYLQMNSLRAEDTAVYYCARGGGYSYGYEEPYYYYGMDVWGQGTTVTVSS
VL: AIQLTQSPLSLSVSAGEKVTMSCKSSQSLLNSGNQKNDLAWYQQKPGQRPKLLIYGASTRESGVPDRFTGSGSGTDFTLTISSVQAEDLAVYYCQNDHSYPLTFGAGTKLEIKR
B5: EW01 (antibody, human IgG1, lambda, V domains shown)
VH: EVQLLESGGGLVQPGGSLRLSCAVSGFTFSDYYMSWVRQAPGKGLEWVSGIYSSSSNIYYADSVKGRFTISRDNSENTLYLQMNSLRAEDTAVYYCAKALGNQENEPTSYSNGMDVWGQGTLVTVSS
VL: QSVLTQPPSASGTPGQRVTISCSGSSSNIGNNSVYWYQQLPGTAPKLLIYSDSQRPSGVPDRFSGSKSGTSASLAISGLRSEDEADYYCGTWDYSLNGYVFGGGTKLTVLG
notes: also called anti-idiotype antibody EW01; EW01 antibody
B6: EW06 (antibody, human IgG1, lambda, V domains shown)
VH: EVQLLESGGGLVQPGGSLRLSCAASGFTFSGYDMSWVRQAPGKGLEWVSGISHGDGNIYYADSVKGRFTISRDNSKNTLYLQMNSLRAEDTAVYYCAKVGLLFVQEEPSYYNAMDVWGQGTLVTVSS
VL: B5 VL with S23T, N31S, S33N, Y35T, D52N, Q54H, E84G, Y94D
B7: EW03 (antibody, human IgG1, lambda, V domains shown)
VH: EVQLLESGGGLVQPGGSLRLSCAASGFTFSDYDMSWVRQAPGKGLEWVSLISYGGSNTYYADSVKGRFTISRDNSKNTLYLQMNSLRAEDTAVYYCAKFRSEFNENEPSSYYGMDVWGQGTLVTVSS
VL: B5 VL with S33D, Y35T, Q54N, Y94S, N97S, G98A
B8: EW26 (antibody, human IgG1, lambda, V domains shown)
VH: EVQLLESGGGLVQPGGSLRLSCAASGFTFSNYAMSWVRQAPGKGLEWVSAIYPGGGNTYYADSVKGRFTISRDNSKNTLYLQMNSLRAEDTAVYYCAKSLSTHSVDEPSSDNAMDVWGQGTLVTVSS
VL: B5 VL with S23T, N31S, Y35S, S51D, Q54N, G90A, T91S, G98A
B9: EW10 (antibody, human IgG1, lambda, V domains shown)
VH: EVQLLESGGGLVQPGGSLRLSCAASGFTFSGYDMSWVRQAPGKGLEWVSGISYNGGSKYYADSVKGRFTISRDNSKNTLYLQMNSLRAEDTAVYYCAKYLLPVLEEPGYSADGMDVWGQGTLVTVSS
VL: B5 VL with S23T, N31S, S33Y, Y35S, Q38R, Q54N, G90A, Y94A, N97S, G98A
B10: EW16 (antibody, human IgG1, lambda, V domains shown)
VH: EVQLLESGGGLVQPGGSLRLSCAASGFTFSDYYMSWVRLAPGKGLEWVSAISHSSGNTYYADSVKGRFTISRDNSKNTLYLQMNSLRAEDTAVYYCAKHLGAQSDEPDSSSNGMDVWGQGTLVTVSS
VL: B5 VL with S23T, S33D, Q54N, V59I, Y94D
B11: EW37 (antibody, human IgG1, lambda, V domains shown)
VH: B1 VH with A33S, G87R, K98R, Y99V, S101L, V102Y
VL: B5 VL with N31S, Y35N, Q54H, T91S, Y94D, N97S
B12: HAL 7-7 (antibody, human IgG1, lambda, V domains shown)
VH: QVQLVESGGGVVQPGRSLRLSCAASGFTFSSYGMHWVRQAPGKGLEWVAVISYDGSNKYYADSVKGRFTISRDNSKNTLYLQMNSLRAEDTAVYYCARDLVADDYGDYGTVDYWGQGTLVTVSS
VL: QSVLTQPPSVSMAPGQTARITCGGNNIATKGVHWYQQKAGQAPVLVVYDDSGRPSGIPDRFSGSKSGNTATLTISRVEAGDEADYYCQLWDGRSDQVLFGGGTKLTVLG
B13: AbF46 (antibody, V domains shown)
VH: EVKLVESGGGLVQPGGSLRLSCATSGFTFTDYYMSWVRQPPGKALEWLGFIRNKANGYTTEYSASVKGRFTISRDNSQSILYLQMDTLRAEDSATYYCARDNWFAYWGQGTLVTVSA
VL: DILMTQSPSSLTVSAGEKVTMSCKSSQSLLASGNQNNYLAWHQQKPGRSPKMLIIWASTRVSGVPDRFIGSGSGTDFTLTINSVQAEDLAVYYCQQSYSAPLTFGAGTKLELK
notes: Mouse monoclonal antibody from a hybridoma; tested as hybridoma culture supernatant in the selection ELISA; also called mouse antibody AbF46; monoclonal antibody of hybridoma KCLRF-BP-00220
B14: HAL 7-2 (antibody, human IgG1, lambda, V domains shown)
VH: QVQLVQSGAEVKKPGSSVKVSCKASGGTFSSYAISWVRQAPGQGLEWMGGIIPIFGTANYAQKFQGRVTITADESTSTAYMELSSLRSEDTAVYYCARDRNSYYEEPMYYFDYWGQGTLVTVSS
VL: QAGLTQPPSVSVSPGQTASITCSGDKLGDRYVFWYQQKPGQAPVLVVHDDSDRPSGIPERFSGSNSGDTATLTISRVEAGDEADYYCQVWDSVNDHPVFGGGTKLTVLG
B15: HAL 7-5 (antibody, human IgG1, lambda, V domains shown)
VH: B14 VH with S16A
VL: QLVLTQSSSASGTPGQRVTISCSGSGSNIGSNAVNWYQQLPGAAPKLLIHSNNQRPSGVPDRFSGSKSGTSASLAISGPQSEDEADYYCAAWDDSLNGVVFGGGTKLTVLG
B16: EW09 (antibody, human IgG1, lambda, V domains shown)
VH: EVQLLESGGGLVQPGGSLRLSCAASGFTFSDYDMSWVRQAPGKGLEWVSSISYGGGSIYYADSVKGRFTISRDNSKNTLYLQMNSLRAEDTAMYYCARDAAYFDYWGQGTLVTVSS
VL: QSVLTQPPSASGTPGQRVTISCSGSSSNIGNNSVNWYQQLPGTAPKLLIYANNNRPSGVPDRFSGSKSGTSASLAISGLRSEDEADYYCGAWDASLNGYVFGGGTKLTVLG
B17: huAbF46-H4-A1 (IgG2 Fc) (antibody, V domains shown)
VH: EVQLVESGGGLVQPGGSLRLSCAASGFTFTDYYMSWVRQAPGKGLEWLGFIRNKANGYTTEYSASVKGRFTISRDNSKNTLYLQMNSLRAEDTAVYYCARDNWFAYWGQGTLVTVSS
VL: DIQMTQSPSSLSASVGDRVTITCKSSQSLLASGNQNNYLAWYQQKPGKAPKMLIIWASTRVSGVPSRFSGSGSGTDFTLTISSLQPEDFATYYCQQSYSRPYTFGQGTKVEIKR
notes: It was biotinylated in some assays; also called anti-c-Met antibody; biotinylated anti-c-Met antibody

Assays:
huAbF46-H4-A1 (IgG2 Fc) [1] = target: B17; assay: SPR (Biacore)
huAbF46-H4-A1 (IgG2 Fc) [2] = target: B17; assay: bridging ELISA: plate coated with anti-c-Met antibody, anti-idiotype antibody, biotinylated anti-c-Met antibody as detector
Method: (§1) The antibodies prepared in Example 1 above were produced in 293 F cells (invitrogen), purified and quantified to adjust their concentration, and then used for the following tests. The quantification of the purified antibodies was performed using a Nano-drop machine, and numerals reflecting A280/A260 absorption values were used. The quantification results were confirmed again through SDA-PAGE procedures. […] After blocking, the plates were washed with a PBST (0.05% Tween20 in PBS) and then treated with the anti-idiotype antibodies prepared in example 1 at 10-fold serial dilution concentrations (10 μg/ml, 1 μg/ml, 0.1 μg/ml, and 0.01 μg/ml) starting from 10 μg/ml, respectively to react at a room temperature for one hour. After the reaction was complete, the plates were washed again with a microplate washer (Biotek ELx405, PBST).
(§2) For color development, the plates were treated with TMB (3,3,5,5-tetramethylbenzidine) which is a HRP substrate, and absorption was measured at 450 nm.

huAbF46-H4-A1 (IgG2 Fc) [3] = target: B17; assay: bridging ELISA: plate coated with anti-c-Met antibody 1 ug/ml; anti-idiotype antibody at 0.01 to 10 (ug/ml per paragraph 258, axis prints no unit); detection with biotinylated anti-c-Met antibody 200 ng/ml and avidin-HRP; absorbance at 450 nm
Method: as §1, §2

[4] = target: T1, human c-Met/Fc fusion protein (R&D Systems) (human, UniProt P08581 25-932); assay: ELISA, hybridoma culture on plates coated with human c-Met/Fc fusion protein
T1 construct: Bought; also called human c-Met/Fc protein; not shown: Fc part
Method: The antibody that remained unbound was removed by washing.
The hybridoma cell culture obtained in Reference Example 1.1.2 was added in an amount of 50 μL to each well of the plates and incubated for 1 hour. The cells remaining unreacted were washed out with a sufficient amount of Tris-buffered saline and Tween 20 (TBST). Goat anti-mouse IgG-horseradish peroxidase (HRP) was added to the plates and incubated for 1 hour at room temperature. The plates were washed with a sufficient amount of TBST, followed by reacting the peroxidase with a substrate (OPD). Absorbance at 450 nm was measured on an ELISA reader.

EW02 = target: B1; assay: sandwich ELISA: capture EW02 0.25 ug/ml; anti-c-Met antibody titrated 3-fold from 1 (ug/ml per paragraph 273, axis prints no unit) in 10% human serum; detector EW01-biotin 0.25 ug/ml, streptavidin-HRP; absorbance at 450 nm
Text: Finally, the plates were washed with a washing solution (PBST (0.05% Tween20 in PBS)) to eliminate unreacted HRP and then, they were subject to color development using a TMB substrate to measure absorption at 450 nm.

[5] = target: T2, c-Met protein (358-MT/CF, RND systems) (UniProt P08581 25-932); assay: ELISA, 'Pre-existing Experiment (0.1% serum)': plate coated with c-Met protein; anti-c-Met antibody titrated 3-fold from 1 ug/ml in monkey serum diluted to 0.1%; Abs450
T2 construct: Bought reagent, known only by its catalogue number; also called antigen c-Met protein

EW01 = target: B5; assay: sandwich ELISA: plate coated with EW01 0.25 ug/ml; anti-c-Met antibody titrated 3-fold from 1 ug/ml in cynomolgus monkey serum (10% per paragraph 268; the sheet's title prints 0.1% serum); detector biotinylated EW01 0.25 ug/ml, streptavidin-HRP; Abs450
Method: After the reaction of the detection antibody was over, the same washing procedures as above were carried out, and a HRP-streptavidin solution (BioLegend) was added thereto to react at a room temperature for one hour. After all the reactions were over, the plates were finally washed and treated with a TMB substrate for color development, and absorption was measured at 450 nm and analyzed.

T1 sequence (P08581 25-932 limits assumed): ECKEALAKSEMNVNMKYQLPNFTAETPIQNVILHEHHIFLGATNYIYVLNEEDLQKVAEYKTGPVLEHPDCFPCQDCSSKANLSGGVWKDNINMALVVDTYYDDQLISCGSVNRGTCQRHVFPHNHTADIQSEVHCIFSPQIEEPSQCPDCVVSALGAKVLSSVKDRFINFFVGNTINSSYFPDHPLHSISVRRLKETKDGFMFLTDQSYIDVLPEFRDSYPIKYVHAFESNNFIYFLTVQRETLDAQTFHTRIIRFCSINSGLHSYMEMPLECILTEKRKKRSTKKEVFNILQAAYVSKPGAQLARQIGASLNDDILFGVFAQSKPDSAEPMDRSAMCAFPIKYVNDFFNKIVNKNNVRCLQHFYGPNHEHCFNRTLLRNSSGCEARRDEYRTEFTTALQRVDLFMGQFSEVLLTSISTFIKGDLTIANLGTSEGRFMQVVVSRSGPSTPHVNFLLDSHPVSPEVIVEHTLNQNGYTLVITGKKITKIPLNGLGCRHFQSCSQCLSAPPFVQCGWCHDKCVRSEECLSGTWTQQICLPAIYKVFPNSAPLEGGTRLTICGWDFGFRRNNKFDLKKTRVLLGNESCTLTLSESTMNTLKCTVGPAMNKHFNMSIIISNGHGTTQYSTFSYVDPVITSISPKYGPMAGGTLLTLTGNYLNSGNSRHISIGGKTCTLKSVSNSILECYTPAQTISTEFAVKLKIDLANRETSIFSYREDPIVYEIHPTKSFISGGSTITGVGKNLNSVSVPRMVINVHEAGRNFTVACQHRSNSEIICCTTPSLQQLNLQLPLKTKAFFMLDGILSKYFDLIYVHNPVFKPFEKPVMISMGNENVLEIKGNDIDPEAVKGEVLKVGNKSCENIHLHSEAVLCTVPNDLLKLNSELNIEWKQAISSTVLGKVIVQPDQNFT
T2 sequence (P08581 25-932 limits assumed): as above

| Binder | binding result (huAbF46-H4-A1 (IgG2 Fc) [2]) | further results |
| --- | --- | --- |
| B1 |  | Kd (huAbF46-H4-A1 (IgG2 Fc) [1]): 38.4 nM; koff (huAbF46-H4-A1 (IgG2 Fc) [1]): 0.0032 s⁻¹; kon (huAbF46-H4-A1 (IgG2 Fc) [1]): 85000 M⁻¹ s⁻¹ |
| B2 | binds |  |
| B3 | binds |  |
| B4 | binds |  |
| B5 |  | binding result (huAbF46-H4-A1 (IgG2 Fc) [3]): binds |
| B6 | binds |  |
| B7 | binds |  |
| B8 | binds |  |
| B9 | binds |  |
| B10 | binds |  |
| B11 | binds |  |
| B12 | binds |  |
| B13 |  | binding result [4]: binds |
| B14 | binds |  |
| B15 | binds |  |
| B16 | binds |  |
| B17 |  | binding result (EW02): binds; EC50 (read off the curve) [5]: ~0.03 µg/mL; EC50 (read off the curve) (EW01): ~0.02 µg/mL |
